Earlier results in publication PMC11045845 (Nature Communications, 2024).
No end group written: not given here.

Experiments:
[1] = literature values for comparison
Method: Upon increasing the lipid concentration, the intensity at the emission maximum increased and the position of the maximum was blue-shifted to lower wavelengths. A maximum blue shift of (18 ± 2) nm in the presence of 2 mM POPC was determined (Fig. 2a, blue curve, Fig. 2b), accompanied by an increase in the maximum fluorescence intensity (Fig. 2a, c). The observed blue shift indicates the partitioning of the L-trypt ...

[2] = glycerylmonooleate BLMs
Source text: For further support, single-channel proton conductance measurements would be desirable but cannot be performed at physiological conditions owing to orders of magnitudes too small proton concentrations.

| Substance | blue shift [1] | single-channel conductance GK+ [2] |
| --- | --- | --- |
| cecropin A (KWKLFKKIEKVGQNIRDGIIKAGPAVAVVGQATQIAK; ends and bridges not checked; UniProt P01507 27-63, looked up) [antimicrobial peptide] | 15 nm | – |
| gramicidin A | – | ≈ 29 pS |
| melittin | around 20 nm | – |
